Experimental data published in patent US20220098635A1.
Read-outs that look alike come from different tables or passages of the source.

Columns and labels:
[1] = target: RGD peptide (cyclo(Arg-Gly-Asp-D-Phe-Cys)); assay: method not stated
[2] = target: RGD peptide (cyclo(Arg-Gly-Asp-D-Phe-Cys)); assay: cell-based or functional assay
[3] = target: RGD peptide (cyclo(Arg-Gly-Asp-D-Phe-Cys))
[4] = target: RGD peptide (cyclo(Arg-Gly-Asp-D-Phe-Cys)); remark: listed apart in the source
[5] = target: RGD peptide (cyclo(Arg-Gly-Asp-D-Phe-Cys)); assay: STM junction, bare probe (NA), RGD peptide on substrate only, gap Z0 + 2 nm
[6] = target: RGD peptide (cyclo(Arg-Gly-Asp-D-Phe-Cys)); remark: listed apart in the source

Sequence of αVβ3 Integrin (receptor) (P06756 31-992): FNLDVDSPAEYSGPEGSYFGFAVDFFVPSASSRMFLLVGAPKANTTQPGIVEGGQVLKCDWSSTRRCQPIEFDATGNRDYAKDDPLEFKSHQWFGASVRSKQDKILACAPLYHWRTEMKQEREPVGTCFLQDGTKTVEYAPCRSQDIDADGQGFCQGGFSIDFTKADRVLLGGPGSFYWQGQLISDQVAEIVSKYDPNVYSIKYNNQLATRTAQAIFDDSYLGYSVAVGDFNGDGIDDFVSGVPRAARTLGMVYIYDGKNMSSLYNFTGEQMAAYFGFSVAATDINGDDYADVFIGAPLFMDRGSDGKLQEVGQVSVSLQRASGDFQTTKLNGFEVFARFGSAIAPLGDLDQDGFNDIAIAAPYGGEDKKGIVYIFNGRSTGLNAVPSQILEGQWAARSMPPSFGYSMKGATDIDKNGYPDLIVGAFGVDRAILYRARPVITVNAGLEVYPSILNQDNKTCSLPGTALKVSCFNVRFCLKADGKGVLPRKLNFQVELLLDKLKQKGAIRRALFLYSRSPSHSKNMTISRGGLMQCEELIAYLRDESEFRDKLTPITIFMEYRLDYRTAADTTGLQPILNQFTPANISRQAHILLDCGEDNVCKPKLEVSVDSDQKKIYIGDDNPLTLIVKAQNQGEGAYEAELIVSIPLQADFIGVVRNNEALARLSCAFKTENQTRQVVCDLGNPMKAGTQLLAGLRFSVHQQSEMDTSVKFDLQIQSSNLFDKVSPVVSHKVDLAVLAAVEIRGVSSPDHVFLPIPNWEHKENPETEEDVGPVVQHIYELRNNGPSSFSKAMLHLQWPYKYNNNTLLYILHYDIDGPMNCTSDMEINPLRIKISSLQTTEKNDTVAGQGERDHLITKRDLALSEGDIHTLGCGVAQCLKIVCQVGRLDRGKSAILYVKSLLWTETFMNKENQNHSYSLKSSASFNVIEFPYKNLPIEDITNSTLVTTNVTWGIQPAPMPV
Sequence of αVβ3 Integrin (receptor) (P05106 27-718, further chain): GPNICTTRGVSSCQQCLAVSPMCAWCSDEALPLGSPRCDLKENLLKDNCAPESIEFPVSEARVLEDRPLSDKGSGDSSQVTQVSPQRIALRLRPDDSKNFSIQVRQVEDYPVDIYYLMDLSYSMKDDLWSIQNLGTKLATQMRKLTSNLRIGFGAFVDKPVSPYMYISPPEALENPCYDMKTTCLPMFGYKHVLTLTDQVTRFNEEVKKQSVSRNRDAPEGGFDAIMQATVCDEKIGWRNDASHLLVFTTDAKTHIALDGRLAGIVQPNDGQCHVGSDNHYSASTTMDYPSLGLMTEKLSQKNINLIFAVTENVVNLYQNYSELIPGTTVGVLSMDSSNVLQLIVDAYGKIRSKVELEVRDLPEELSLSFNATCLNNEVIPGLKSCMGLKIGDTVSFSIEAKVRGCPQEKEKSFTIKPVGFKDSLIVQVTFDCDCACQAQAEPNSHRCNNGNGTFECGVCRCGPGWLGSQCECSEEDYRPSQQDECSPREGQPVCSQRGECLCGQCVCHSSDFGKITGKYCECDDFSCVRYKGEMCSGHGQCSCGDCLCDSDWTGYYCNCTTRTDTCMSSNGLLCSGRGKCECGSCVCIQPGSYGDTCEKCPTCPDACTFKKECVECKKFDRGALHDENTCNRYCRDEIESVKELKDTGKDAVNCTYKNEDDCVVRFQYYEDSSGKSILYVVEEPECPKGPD

αVβ3 Integrin (receptor)
Kd [1]: 10 nM | Peak Conductance (nS), Binding Mode NS-S [2]: 0.38 nS | Frequency with which sweeps yielded an IV curve [3]: 23.7% | Frequency with which sweeps yielded an IV curve [4]: 10.5% | Frequency with which sweeps yielded an IV curve [5]: 0% | Frequency with which sweeps yielded an IV curve [6]: 35.9%
